Measured values published in US11844843 (DYNE THERAPEUTICS, dated 2023).

Legend:
[1] = target: T1, recombinant human TfR1 (transferrin receptor protein 1) (human, UniProt P02786 89-760); assay: surface plasmon resonance
T1 construct: Recombinant protein in SPR and ELISA; they were assigned to this molecule; also called hTfR1; huTfR1

[2] = target: T2, recombinant cynomolgus monkey (Macaca fascicularis) TfR1 (cynomolgus monkey (Macaca fascicularis), UniProt Q5RDH6 87-760 (Pongo abelii entry), limits assumed); assay: surface plasmon resonance
T2 construct: Recombinant protein; also called cTfR1; cyTfR1
T2 chain: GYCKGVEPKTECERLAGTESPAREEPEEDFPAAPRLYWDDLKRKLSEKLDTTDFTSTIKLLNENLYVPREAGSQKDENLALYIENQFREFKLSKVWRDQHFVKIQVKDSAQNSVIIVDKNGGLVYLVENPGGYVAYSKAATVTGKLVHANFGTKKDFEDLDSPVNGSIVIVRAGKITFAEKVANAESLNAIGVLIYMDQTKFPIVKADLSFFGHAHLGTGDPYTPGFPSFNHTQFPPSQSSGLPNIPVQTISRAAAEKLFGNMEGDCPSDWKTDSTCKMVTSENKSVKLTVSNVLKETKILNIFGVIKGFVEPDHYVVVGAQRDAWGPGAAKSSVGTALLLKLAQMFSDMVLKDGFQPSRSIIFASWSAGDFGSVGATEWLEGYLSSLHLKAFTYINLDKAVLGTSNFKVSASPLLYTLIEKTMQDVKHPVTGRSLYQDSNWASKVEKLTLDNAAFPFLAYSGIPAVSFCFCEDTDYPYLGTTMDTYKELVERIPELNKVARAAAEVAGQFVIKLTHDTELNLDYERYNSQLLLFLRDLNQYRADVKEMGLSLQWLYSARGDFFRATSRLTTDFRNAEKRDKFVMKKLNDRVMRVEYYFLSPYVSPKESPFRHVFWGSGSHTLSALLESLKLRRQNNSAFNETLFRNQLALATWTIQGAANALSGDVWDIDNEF

[3] = target: T1, recombinant human TfR1 (transferrin …); assay: Biacore, d0; TfR1 species not stated
[4] = target: T1, recombinant human TfR1 (transferrin …); assay: Biacore, d25; TfR1 species not stated
[5] = target: T1, recombinant human TfR1 (transferrin …); assay: kinetic analysis (Biacore), Table 7; TfR1 species not stated
[6] = target: T3, recombinant human TfR2 (transferrin receptor 2) (human, UniProt Q9UP52 105-801, limits assumed); assay: ELISA on plate-coated recombinant human TfR2, anti-(H+L) IgG-A488 secondary
T3 construct: Recombinant protein in ELISA and SPR; also called hTfR2
T3 sequence (looked up): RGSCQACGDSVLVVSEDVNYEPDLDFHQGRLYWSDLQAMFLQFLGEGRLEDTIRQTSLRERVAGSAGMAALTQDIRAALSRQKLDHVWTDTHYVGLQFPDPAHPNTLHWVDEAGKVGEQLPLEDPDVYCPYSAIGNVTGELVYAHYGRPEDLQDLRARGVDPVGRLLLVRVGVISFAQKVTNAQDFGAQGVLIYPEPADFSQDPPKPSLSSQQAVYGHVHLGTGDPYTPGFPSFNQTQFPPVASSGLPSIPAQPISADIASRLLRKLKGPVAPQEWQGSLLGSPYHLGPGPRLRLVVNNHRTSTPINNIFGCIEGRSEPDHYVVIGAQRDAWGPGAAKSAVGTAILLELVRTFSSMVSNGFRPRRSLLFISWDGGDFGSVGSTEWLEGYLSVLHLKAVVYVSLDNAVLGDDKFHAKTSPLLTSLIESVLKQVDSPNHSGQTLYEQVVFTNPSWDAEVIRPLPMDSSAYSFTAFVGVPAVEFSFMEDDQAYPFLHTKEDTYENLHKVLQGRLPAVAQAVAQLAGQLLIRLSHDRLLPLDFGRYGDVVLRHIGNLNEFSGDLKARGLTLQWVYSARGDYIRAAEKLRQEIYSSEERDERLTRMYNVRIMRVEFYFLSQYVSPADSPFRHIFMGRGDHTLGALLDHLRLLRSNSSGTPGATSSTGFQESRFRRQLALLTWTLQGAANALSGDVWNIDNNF
Experimental: Recombinant human TfR2 protein was plated overnight at […] and was blocked for 1 hour with 1% bovine serum albumin (BSA) in PBS. Serial dilutions of the Fab or a positive control anti-TfR2 antibody were added in 0.5% BSA/TBST for 1 hour. After washing, anti-(H+L) IgG-A488 (Invitrogen #MA5-25932) fluorescent secondary antibody was added at a 1:500 dilution in 0.5% BSA/TBST and the plate was incubated for 1 hour. Relative fluorescence was measured using a Biotek Synergy plate reader at 495 nm excitation and 520 nm emission.

[7] = target: T1, recombinant human TfR1 (transferrin …); assay: ELISA, recombinant TfR1 coated, unconjugated Fab (row 'Fab binding affinity ELISA')
[8] = target: T2, recombinant cynomolgus monkey (Macaca …); assay: as above

B1: humanized anti-TfR Fab 3M12 VH4/Vκ3 (Fab, V domains shown)
VH: QVQLQESGPGLVKPSQTLSLTCTVTGYSITSGYYWNWIRQPPGKGLEWIGYITFDGANNYNPSLKNRVSISRDTSKNQFSLKLSSVTAEDTATYYCTRSSYDYDVLDYWGQGTTVTVSS
VL: DIQMTQSPSSLSASVGDRVTITCRASQDISNFLNWYQQKPGQPVKLLIYYTSRLHSGVPSRFSGSGSGTDFTLTISSLQPEDFATYYCQQGHTLPYTFGQGTKLEIKR
notes: also called 3M12 (VH4/Vk3); anti-TfR Fab 3M12 VH4/Vk3
B1 showed a Kd [1] of 0.768 nM, a koff [1] of 0.000127 s⁻¹ and a kon [1] of 166000 M⁻¹ s⁻¹. The Kd [2] was 5.18 nM, the koff [2] was 0.000476 s⁻¹ and the kon [2] was 91900 M⁻¹ s⁻¹. For the same binder, the Kd [3] was 0.341 nM, the Kd [4] was 0.486 nM and the Kd [5] was 0.341 nM. The koff [5] was 8.61e-05 s⁻¹, the kon [5] was 252000 M⁻¹ s⁻¹ and the binding result [6] was “no binding (tested: 500 nM)”. It also gave an EC50 [7] of 0.5 nM and an EC50 [8] of 2.2 nM.
